According to US20200317768A1 (published 2020):
Substitutions are numbered along the chain they refer to.

T1: cynomolgus monkey FcγRIIa1 extracellular domain, C-terminal His-tag (cynomolgus monkey)
T1 construct: also called cyno FcγRIIa1; cynoFcgRIIa1; not shown: His-tag added to C-terminus
T1 chain: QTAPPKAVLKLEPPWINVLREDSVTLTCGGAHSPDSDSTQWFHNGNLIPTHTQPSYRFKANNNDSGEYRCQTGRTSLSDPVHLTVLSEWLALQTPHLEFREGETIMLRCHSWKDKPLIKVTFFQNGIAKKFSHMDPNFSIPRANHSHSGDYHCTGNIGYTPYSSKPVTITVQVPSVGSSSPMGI

T2: cynomolgus monkey FcγRIIa3 extracellular domain, C-terminal His-tag (cynomolgus monkey)
T2 construct: also called cyno FcγRIIa3; cynoFcgRIIa3; not shown: His-tag added to C-terminus
T2 chain: T1 chain with P95T, T121A, A128S, H133P, D135N

T3: human FcγRIIaH extracellular domain, C-terminal His-tag (human, UniProt P12318 34-217)
T3 construct: also called human FcγRIIa (type H); FcgRIIaH; not shown: His-tag added to C-terminus
T3 sequence: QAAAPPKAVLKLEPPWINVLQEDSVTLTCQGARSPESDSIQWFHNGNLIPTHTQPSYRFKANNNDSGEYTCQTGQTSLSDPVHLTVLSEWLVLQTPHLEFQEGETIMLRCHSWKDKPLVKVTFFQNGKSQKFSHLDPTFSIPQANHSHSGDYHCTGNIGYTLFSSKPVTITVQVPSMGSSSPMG

T4: cynomolgus monkey FcγRIIa2 extracellular domain, C-terminal His-tag (cynomolgus monkey)
T4 construct: also called cyno FcγRIIa2; cynoFcgRIIa2; not shown: His-tag added to C-terminus
T4 chain: T1 chain with P95T, T121A, I127K, A128S, K130N, D135N, R142Q

T5: cynomolgus monkey FcγRIIb extracellular domain, C-terminal His-tag (cynomolgus monkey)
T5 construct: also called cyno FcγRIIb; cynoFcγRIIb; not shown: His-tag added to C-terminus
T5 chain: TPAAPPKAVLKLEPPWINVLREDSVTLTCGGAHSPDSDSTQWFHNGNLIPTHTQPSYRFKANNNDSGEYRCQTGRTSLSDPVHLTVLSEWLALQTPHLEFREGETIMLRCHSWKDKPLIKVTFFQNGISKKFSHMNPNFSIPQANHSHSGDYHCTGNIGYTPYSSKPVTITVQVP

T6: human FcγRIIaR extracellular domain, C-terminal His-tag (human, UniProt P12318 34-217)
T6 construct: also called human FcγRIIa (type R); FcgRIIaR; not shown: His-tag added to C-terminus
T6 chain: T3 sequence with H134R

B1: M103205H795-MY242/M103202L889-SK1 (antibody, human IgG1, kappa)
heavy: QVTLKESGPVLVKPTETLTLTCTVSGIDLSHDDISWVRQAPGKGLEWVGIISYAGSTYYASWAKGRLTISKDTSKNQVVLTMTNMDPVDTATYYCARGVPAYSHGGDLWGQGTLVTVSSASTKGPSVFPLAPSSKSTSGGTAALGCLVKDYFPEPVTVSWNSGALTSGVHTFPAVLQSSGLYSLSSVVTVPSSSLGTQTYICNVNHKPSNTKVDKKVEPKSCDKTHTCPPCPAPELLGGISVFLFPPKPKDTLMISRTPEVTCVVVDVSDEDPEVKFNWYVDGVEVHNAKTKPREEQYNSTYRVVSVLTVLHQDWLNGKEYKCKVSNKALPKPIEKTISKAKGQPREPQVYTLPPSREEMTKNQVSLTCLVKGFYPSDIAVEWESNGQPENNYKTTPKVLDSDGSFFLYSKLTVDKSRWQQGNVFSCSVMHEALHNHYTQKSLSLSP
light: DIVMTQSPATLSLSPGERATLSCTSSQSVYHANWLSWFQQKPGQPPKLLIYWASTLAYGVPSRFSGSGSGTDFTLTISSLQPEDAATYYCAGGYGGGRYAFGQGTKVEIKRTVAAPSVFIFPPSDEQLKSGTASVVCLLNNFYPREAKVQWKVDNALQSGNSQESVTEQDSKDSTYSLSSTLTLSKADYEKHKVYACEVTHQGLSSPVTKSFNRGEC
B2: M103205H795-MY271/M103202L889-SK1 (antibody, human IgG1, kappa)
heavy: B1 heavy with G238V, I240P
light: B1 light
B3: M103205H795-MY281/M103202L889-SK1 (antibody, human IgG1, kappa)
heavy: B1 heavy with G238Q, I240P, Q297L, K398P
light: B1 light
B4: M103205H795-MY273/M103202L889-SK1 (antibody, human IgG1, kappa)
heavy: B1 heavy with G238L, I240P
light: B1 light
B5: M103205H795-MY270/M103202L889-SK1 (antibody, human IgG1, kappa)
heavy: B1 heavy with G238H, I240P
light: B1 light
B6: M103205H795-MY274/M103202L889-SK1 (antibody, human IgG1, kappa)
heavy: B1 heavy with G238T, I240P
light: B1 light
B7: M103205H795-MY269/M103202L889-SK1 (antibody, human IgG1, kappa)
heavy: B1 heavy with G238M, I240P
light: B1 light
B8: M103205H795-MY279/M103202L889-SK1 (antibody, human IgG1, kappa)
heavy: B1 heavy with G238H, I240P, Q297L, K398P
light: B1 light
B9: M103205H795-MY272/M103202L889-SK1 (antibody, human IgG1, kappa)
heavy: B1 heavy with G238Q, I240P
light: B1 light
B10: M103205H795-MY278/M103202L889-SK1 (antibody, human IgG1, kappa)
heavy: B1 heavy with G238M, I240P, Q297L, K398P
light: B1 light
B11: M103205H795-MY276/M103202L889-SK1 (antibody, human IgG1, kappa)
heavy: B1 heavy with G238I, I240P
light: B1 light

Target: T1, cynomolgus monkey FcγRIIa1 …
Experiment: SPR (Biacore), KD of SG1 / KD of variant;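 note: relative to parent M103205H795-SG1 carrying the SG1 human heavy chain constant region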
Protocol: (§1) The kinetic analysis of interactions between these antibodies and FcγR was carried out using BIACORE® T200 or BIACORE® 4000 (GE Healthcare). HBS-EP+ (GE Healthcare) was used as the running buffer, and the measurement temperature was set to 25° C. A chip produced by immobilizing Protein A. Protein A/G or mouse anti-human IgG kappa light chain (BD Biosciences) onto a Series S Sensor Chip CM4 or CM5 (GE Healthcare) by the amine-coupling method was used. […] After the measurement, the antibody captured on the chip was washed off by allowing reaction with 10 mM glycine-HCl, pH1.5 and 25 mM NaOH so that the chip was regenerated and used repeatedly. The sensorgrams obtained as measurement results were analyzed by the 1:1 Langmuir binding model using the BIACORE® Evaluation Software to calculate the binding rate constant ka (L/mol/s) and dissociation rate constant kd (l/s), and the dissociation constant KD (mol/L) was calculated from these values. […] Regarding such interactions, KD values were calculated using the following 1:1 binding model described in BIACORE® T100 Software Handbook BR1006-48 Edition AE.
(§2) The behavior of interacting molecules according to the 1:1 binding model on BIACORE® can be described by Equation 1: Req=C·R max/(KD+C)+RI, wherein, Req is a plot of steady-state binding levels to analyte concentration. C is concentration, RI is bulk refractive index contribution in the sample, and Rmax is analyte binding capacity of the surface. When this equation is rearranged, KD can be expressed as Equation 2: KD=C·Rmax/(Req−RI)−C. KD can be calculated by substituting the values of Rmax, RI, and C into Equation 1 or Equation 2. From the current measurement conditions, RI=0, C=2 μmol/L can be used.

| KD fold (SG1 = 1) | Binder |
| --- | --- |
| 0.7 fold | B1 |
| 4.7 fold | B2 |
| 1.7 fold | B3 |
| 0.8 fold | B4 |
| 1.8 fold | B5 |
| 3.6 fold | B6 |
| 1.4 fold | B7 |
| 1.1 fold | B8 |
| 1.9 fold | B9 |
| 1.1 fold | B10 |
| 2.9 fold | B11 |

Target: T2, cynomolgus monkey FcγRIIa3 …
Experiment: SPR (Biacore), KD of SG1 / KD of variant;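 note: relative to parent M103205H795-SG1 carrying the SG1 human heavy chain constant region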
Protocol: as §1, §2

| KD fold (SG1 = 1) | Binder |
| --- | --- |
| 2.9 fold | B1 |
| 3.5 fold | B2 |
| 1.9 fold | B3 |
| 1.5 fold | B4 |
| 6.5 fold | B5 |
| 8.5 fold | B6 |
| 2.7 fold | B7 |
| 3.6 fold | B8 |
| 2.7 fold | B9 |
| 1.7 fold | B10 |
| 3.8 fold | B11 |

target: T3, human FcγRIIaH extracellular domain, …; experiment: SPR (Biacore), KD of SG1 / KD of variant;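 note: relative to parent M103205H795-SG1 carrying the SG1 human heavy chain constant region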
Protocol: as §1, §2

| KD fold (SG1 = 1) | Binder |
| --- | --- |
| 0.8 fold | B1 |
| 15.7 fold | B2 |
| 3.3 fold | B3 |
| 1.4 fold | B4 |
| 9.5 fold | B5 |
| 8.3 fold | B6 |
| 2.3 fold | B7 |
| 4.9 fold | B8 |
| 7.5 fold | B9 |
| 1.3 fold | B10 |
| 13 fold | B11 |

target: T7, human FcγRIIIaV extracellular domain, C-terminal His-tag (human, UniProt P08637 17-208); experiment: SPR (Biacore), KD of SG1 / KD of variant;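 note: relative to parent M103205H795-SG1 carrying the SG1 human heavy chain constant region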
T7 construct: also called FcgRIIIaV; not shown: His-tag added to C-terminus
T7 sequence (P08637 17-208 F176V): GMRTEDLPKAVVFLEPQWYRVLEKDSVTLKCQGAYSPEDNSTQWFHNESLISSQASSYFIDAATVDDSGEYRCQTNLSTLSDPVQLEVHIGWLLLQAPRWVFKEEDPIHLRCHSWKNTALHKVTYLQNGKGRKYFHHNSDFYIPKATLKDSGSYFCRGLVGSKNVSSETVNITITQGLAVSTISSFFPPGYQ
Protocol: as §1, §2

| KD fold (SG1 = 1) | Binder |
| --- | --- |
| 0.25 fold | B1 |
| 0.35 fold | B2 |
| 0.39 fold | B3 |
| 0.08 fold | B4 |
| 0.22 fold | B5 |
| 0.33 fold | B6 |
| 0.74 fold | B7 |
| 0.12 fold | B8 |
| 0.93 fold | B9 |
| 0.24 fold | B10 |
| 0.14 fold | B11 |

target: T8, cynomolgus monkey FcγRIIIaS extracellular domain, C-terminal His-tag (cynomolgus monkey, UniProt A3RFZ7 21-206 (rhesus entry)); experiment: SPR (Biacore), KD of SG1 / KD of variant
T8 construct: also called cyno FcγRIIIaS; cynoFcγRIIIaS; not shown: His-tag added to C-terminus
T8 sequence (A3RFZ7 21-206): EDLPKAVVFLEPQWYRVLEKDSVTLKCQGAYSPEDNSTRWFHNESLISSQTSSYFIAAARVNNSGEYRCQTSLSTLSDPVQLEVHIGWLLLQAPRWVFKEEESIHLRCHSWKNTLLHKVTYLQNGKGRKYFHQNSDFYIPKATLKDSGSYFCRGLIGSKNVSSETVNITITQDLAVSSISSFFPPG
Protocol: as §1, §2

| KD fold (SG1 = 1) | Binder |
| --- | --- |
| 0.68 fold | B1 |
| 0.41 fold | B2 |
| 0.49 fold | B3 |
| 0.21 fold | B4 |
| 0.33 fold | B5 |
| 0.58 fold | B6 |
| 1.64 fold | B7 |
| 0.15 fold | B8 |
| 1.24 fold | B9 |
| 0.49 fold | B10 |
| 0.3 fold | B11 |

Target: T4, cynomolgus monkey FcγRIIa2 …
Experiment: SPR (Biacore), KD of SG1 / KD of variant
Protocol: as §1, §2

| KD fold (SG1 = 1) | Binder |
| --- | --- |
| 1.2 fold | B1 |
| 7.3 fold | B2 |
| 2 fold | B3 |
| 1.5 fold | B4 |
| 2.4 fold | B5 |
| 6.4 fold | B6 |
| 2 fold | B7 |
| 1.5 fold | B8 |
| 2.7 fold | B9 |
| 1.4 fold | B10 |
| 4.6 fold | B11 |

Target: T5, cynomolgus monkey FcγRIIb extracellular …
Experiment: SPR (Biacore), KD of SG1 / KD of variant
Protocol: as §1, §2

| KD fold (SG1 = 1) | Binder |
| --- | --- |
| 1.6 fold | B1 |
| 9.5 fold | B2 |
| 2.9 fold | B3 |
| 1.5 fold | B4 |
| 3.4 fold | B5 |
| 7.8 fold | B6 |
| 2.8 fold | B7 |
| 2 fold | B8 |
| 4.2 fold | B9 |
| 1.6 fold | B10 |
| 5.3 fold | B11 |

Target: T6, human FcγRIIaR extracellular domain, …
Experiment: SPR (Biacore), KD of SG1 / KD of variant
Protocol: as §1, §2

| KD fold (SG1 = 1) | Binder |
| --- | --- |
| 1.7 fold | B1 |
| 4.8 fold | B2 |
| 2.8 fold | B3 |
| 1.1 fold | B4 |
| 3.1 fold | B5 |
| 6.5 fold | B6 |
| 1.5 fold | B7 |
| 1.5 fold | B8 |
| 4.4 fold | B9 |
| 0.7 fold | B10 |
| 4.4 fold | B11 |
